Experimental data: patent US20040006215A1 (Bristol-Myers Squibb, published 2004)
Values joined by “and” are separate entries in the source; they are usually repeats but may differ in a detail not shown here. Equal entries are not always repeated.

T1: Human CD30 antigen (Medarex, Inc.) (human) (UniProt P28908)
T1 sequence (looked up): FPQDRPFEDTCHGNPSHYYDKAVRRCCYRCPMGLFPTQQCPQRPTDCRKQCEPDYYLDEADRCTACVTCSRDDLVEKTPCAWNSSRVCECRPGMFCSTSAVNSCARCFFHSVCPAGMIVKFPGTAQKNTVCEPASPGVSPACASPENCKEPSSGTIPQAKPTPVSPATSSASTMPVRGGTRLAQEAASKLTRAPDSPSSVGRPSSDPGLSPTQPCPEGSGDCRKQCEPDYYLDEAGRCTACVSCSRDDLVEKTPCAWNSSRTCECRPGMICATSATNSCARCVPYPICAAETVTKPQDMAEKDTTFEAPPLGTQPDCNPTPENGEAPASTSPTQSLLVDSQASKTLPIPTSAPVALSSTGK

T2: recombinant CD30 (supernatant from transfected cells expressing recombinant CD30) (UniProt P28908)
T2 sequence (looked up): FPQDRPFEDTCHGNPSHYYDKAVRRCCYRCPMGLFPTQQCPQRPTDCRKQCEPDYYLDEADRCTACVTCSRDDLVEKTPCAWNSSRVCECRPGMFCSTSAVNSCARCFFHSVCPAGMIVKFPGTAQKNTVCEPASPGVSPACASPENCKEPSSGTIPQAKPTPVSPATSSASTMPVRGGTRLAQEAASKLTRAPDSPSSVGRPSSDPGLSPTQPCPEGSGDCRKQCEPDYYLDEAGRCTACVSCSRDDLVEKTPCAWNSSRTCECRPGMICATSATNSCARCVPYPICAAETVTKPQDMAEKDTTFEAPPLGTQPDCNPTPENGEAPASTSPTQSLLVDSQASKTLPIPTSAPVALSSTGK

T3: recombinant CD30 (supernatant from transfected cells expressing recombinant CD30) (UniProt P28908 19-379, limits assumed)
T3 construct: May be the same preparation as the soluble recombinant CD30 used for immunisation or as m4
T3 sequence (looked up): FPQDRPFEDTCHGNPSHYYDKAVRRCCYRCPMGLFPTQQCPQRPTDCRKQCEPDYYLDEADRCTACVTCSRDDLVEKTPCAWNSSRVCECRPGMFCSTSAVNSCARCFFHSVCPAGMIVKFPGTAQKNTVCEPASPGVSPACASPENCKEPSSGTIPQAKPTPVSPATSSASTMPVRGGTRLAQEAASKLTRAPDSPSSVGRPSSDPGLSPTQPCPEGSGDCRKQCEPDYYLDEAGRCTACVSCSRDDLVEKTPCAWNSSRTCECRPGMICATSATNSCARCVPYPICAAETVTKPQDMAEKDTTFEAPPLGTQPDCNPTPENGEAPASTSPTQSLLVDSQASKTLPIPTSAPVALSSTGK

T4: native CD30 expressed on cells (L540 Hodgkin's lymphoma cell line) (human, UniProt P28908 19-595)
T4 construct: whole, on cells; also called CD30 on L540 cells; CD30-expressing L540 cells
T4 sequence (looked up): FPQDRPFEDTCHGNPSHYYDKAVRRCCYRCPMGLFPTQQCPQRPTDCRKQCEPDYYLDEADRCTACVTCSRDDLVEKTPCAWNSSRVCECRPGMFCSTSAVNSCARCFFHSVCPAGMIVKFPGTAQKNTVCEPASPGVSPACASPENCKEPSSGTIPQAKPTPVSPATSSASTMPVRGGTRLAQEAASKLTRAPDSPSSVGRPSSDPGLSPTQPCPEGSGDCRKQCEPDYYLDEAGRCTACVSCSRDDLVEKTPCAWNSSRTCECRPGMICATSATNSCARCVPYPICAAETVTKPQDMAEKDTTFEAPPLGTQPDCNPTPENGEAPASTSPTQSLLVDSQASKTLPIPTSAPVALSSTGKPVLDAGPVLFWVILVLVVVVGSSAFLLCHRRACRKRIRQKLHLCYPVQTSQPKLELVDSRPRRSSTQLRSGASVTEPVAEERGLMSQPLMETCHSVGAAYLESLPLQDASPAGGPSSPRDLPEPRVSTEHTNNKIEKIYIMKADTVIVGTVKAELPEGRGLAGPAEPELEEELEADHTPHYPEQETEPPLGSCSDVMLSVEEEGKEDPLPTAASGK


Legend:
[1] = target: native CD30 expressed on cells (L540 Hodgkin's lymphoma cell line) (human) (UniProt P28908); test: flow cytometry on L540 cells
[2] = target: T1, Human CD30 antigen (Medarex, Inc.) (human); test: SPR (Biacore 3000), 5F11 captured on protein A, CD30 as analyte, 1:1 Langmuir fit, experiment 2
[3] = target: T2, recombinant CD30 (supernatant from transfected cells expressing recombinant CD30); test: capture ELISA: recombinant CD30 captured on BerH2-coated wells, detection with AP-labeled goat anti-human IgG Fc, OD405
[4] = target: T1, Human CD30 antigen (Medarex, Inc.) (human); test: SPR (Biacore 3000), 5F11 captured on protein A, CD30 as analyte, 1:1 Langmuir fit, experiment 1
[5] = target: native CD30 expressed on cells (L540 Hodgkin's lymphoma cell line) (human) (UniProt P28908); test: flow cytometry on L540 cells at 4 °C, detection with FITC-labeled goat anti-human IgG Fc, mean fluorescence intensity
[6] = target: native CD30 expressed on cells (L540 Hodgkin's lymphoma cell line) (human) (UniProt P28908); test: cell-based or functional assay
[7] = target: T3, recombinant CD30 (supernatant from …); test: capture ELISA: recombinant CD30 captured on BerH2-coated wells, detection with AP-labeled goat anti-human IgG Fc, OD405
Procedure: Microtiter wells were coated with BerH2. After blocking the wells with 5% BSA solution, supernatant from transfected cells expressing recombinant CD30 was allowed to react with BER-H2 coated wells. […] After 1 hour, the wells were washed with PBS-tween and the bound antibodies were detected by incubating the cells with an alkaline-phosphatase-labeled goat anti-human IgG Fc-specific probe, at 37° C. The excess probe was washed from the wells and the plate was developed with pNPP developer. The optical density at 405 nm was determined using a microtiter plate reader.

[8] = target: T4, native CD30 expressed on cells (L540 …); test: flow cytometry on L540 cells at 4 °C, detection with FITC-labeled goat anti-human IgG Fc, mean fluorescence intensity
Procedure: Antibodies were tested for binding to L540, a Hodgkin's lymphoma cell line that expresses high-levels of CD30. […] After 1 hour, the cells were washed with PBS and the bound antibodies were detected by incubating the cells with a FITC labeled goat anti-human IgG Fc-specific probe, at 4° C. The excess probe was washed from the cells with PBS and the cell associated fluorescence was determined by analysis using a FACScalibur instrument.

Row | concentration at saturation [1] | Kd [2] | koff [2] | kon [2] | EC50 (read off the curve) [3] | Kd [4] | koff [4] | kon [4] | EC50 (read off the curve) [5] | IC50 of growth inhibition (XTT assay) of L540 and Karpas 299 cells, 5F11 cross-linked by goat-anti-human IgG [6] | EC50 (read off the curve) [7] | EC50 (read off the curve) [8] | Binder
1 | < 1 µg/mL | 1.14 nM and 1.12 nM | 6.58e-05 s⁻¹ and 6.86e-05 s⁻¹ | 57700 M⁻¹ s⁻¹ and 61300 M⁻¹ s⁻¹ | 0.04 µg/mL | 1.23 nM and 1.36 nM | 7.47e-05 s⁻¹ and 7.03e-05 s⁻¹ | 60900 M⁻¹ s⁻¹ and 51600 M⁻¹ s⁻¹ | 0.05 µg/mL | 10 µg/mL | – | – | human monoclonal antibody (HuMab) 5F11 (antibody, V domains shown) VH: QVQLQQWGAGLLKPSETLSLTCAVYGGSFSAYYWSWIRQPPGKGLEWIGDINHGGGTNYNPSLKSRVTISVDTSKNQFSLKLNSVTAADTAVYYCASLTAYWGQGSLVTVSS VL: DIQMTQSPTSLSASVGDRVTITCRASQGISSWLTWYQQKPEKAPKSLIYAASSLQSGVPSRFSGSGSGTDFTLTISSLQPEDFATYYCQQYDSYPITFGQGTRLEIK
2 | – | – | – | – | – | – | – | – | – | – | ~0.03 µg/mL | ~0.1 µg/mL | human monoclonal antibody (HuMab) 2H9 (antibody, V domains shown) VH: QVQLQQWGAGLLKPSETLSLTCAVYGGSFSGYYWSWIRQPPGKGLEWIGEINHSGSTKYTPSLKSRVTISVDTSKHQFSLKLSSVTAADTAVYYCARETVYYFDLWGRGTLVTVSS VL: EIVLTQSPATLSLSPGERATLSCRASQSVSSNLAWYQQKPGQAPRLLIYDASNRATGIPARLSGSGSGTDFTLTISSLEPEDFAVYYCQQRSNWPWTFGQGTKVEIK
